Tested on: peptide library, one residue held at a place counted from the S/T acceptor
Test: relative phosphorylation of the sub-library (ratio to the mean residue at this position); higher = residue favoured
Conditions: human
In short: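 Spots on streptavidin membranes were phosphorimaged and quantified by densitometry to measure phosphorylation of biotinylated degenerate peptide sub-libraries by purified recombinant kinases, human or orthologue constructs. The reactions ran in 384-well plates for 90 min under kinase-specific conditions, with peptides at 50 μM and 50 μM ATP spiked with γ-32P-ATP. Relative sub-library phosphorylation is the ratio to the mean residue at that position.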

Sequence of ULK1, construct: aa1-649 (O75385 1-649, looked up): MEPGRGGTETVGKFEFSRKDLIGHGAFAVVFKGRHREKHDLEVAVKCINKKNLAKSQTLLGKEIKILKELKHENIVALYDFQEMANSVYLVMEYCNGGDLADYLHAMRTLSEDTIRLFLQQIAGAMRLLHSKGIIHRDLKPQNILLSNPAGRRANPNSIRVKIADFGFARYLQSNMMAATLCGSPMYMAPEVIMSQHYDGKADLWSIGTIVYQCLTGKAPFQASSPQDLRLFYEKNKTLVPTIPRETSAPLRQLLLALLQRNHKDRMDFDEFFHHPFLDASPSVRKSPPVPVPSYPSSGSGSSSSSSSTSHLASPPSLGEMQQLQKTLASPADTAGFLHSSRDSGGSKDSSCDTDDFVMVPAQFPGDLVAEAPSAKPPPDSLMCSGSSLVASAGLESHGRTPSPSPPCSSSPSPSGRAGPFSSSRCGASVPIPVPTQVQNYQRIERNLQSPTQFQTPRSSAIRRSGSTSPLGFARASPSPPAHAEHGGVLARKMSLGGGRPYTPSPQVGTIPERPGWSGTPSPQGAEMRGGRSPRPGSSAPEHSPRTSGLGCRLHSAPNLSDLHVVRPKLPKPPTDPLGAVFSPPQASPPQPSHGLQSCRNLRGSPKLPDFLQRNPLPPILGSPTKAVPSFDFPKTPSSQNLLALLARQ
Sequence of SGK1, construct: aa61-end (O00141 61-431, looked up): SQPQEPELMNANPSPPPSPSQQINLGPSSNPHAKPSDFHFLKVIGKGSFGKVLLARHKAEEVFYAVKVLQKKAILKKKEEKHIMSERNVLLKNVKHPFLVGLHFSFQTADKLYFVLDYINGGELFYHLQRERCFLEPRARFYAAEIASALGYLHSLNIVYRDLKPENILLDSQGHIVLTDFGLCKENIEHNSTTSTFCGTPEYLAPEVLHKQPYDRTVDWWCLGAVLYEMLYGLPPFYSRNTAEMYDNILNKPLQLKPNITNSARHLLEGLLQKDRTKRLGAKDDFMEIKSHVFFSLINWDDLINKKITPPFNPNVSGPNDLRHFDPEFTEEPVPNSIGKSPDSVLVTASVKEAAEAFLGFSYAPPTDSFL

SGK1, construct: aa61-end (from UniProt O00141)
relative phosphorylation
Conditions | at +1 | at +2 | at +3 | at +4 | at -1 | at -2 | at -3 | at -4 | at -5
A fixed | 0.603 | 1.03 | 0.911 | 1.01 | 0.815 | 1.22 | 0.388 | 1.06 | 0.955
D fixed | 0.457 | 0.581 | 1.1 | 0.881 | 0.63 | 0.242 | 0.147 | 0.679 | 0.427
E fixed | 0.461 | 0.537 | 1.14 | 1.03 | 0.483 | 0.227 | 0.157 | 0.749 | 0.453
F fixed | 2.32 | 0.768 | 0.975 | 0.795 | 0.768 | 0.493 | 0.16 | 0.613 | 0.62
G fixed | 0.766 | 1.06 | 1.33 | 1.17 | 1.73 | 0.758 | 0.268 | 1.04 | 0.948
H fixed | 0.889 | 1.6 | 1.35 | 1.33 | 1.25 | 0.946 | 0.757 | 1.01 | 0.99
I fixed | 1.45 | 1.18 | 0.784 | 0.863 | 0.395 | 0.28 | 0.145 | 0.641 | 0.7
K fixed | 0.861 | 0.906 | 1.17 | 1.05 | 1.38 | 3.57 | 1.4 | 1.98 | 2.38
L fixed | 1.22 | 1.27 | 0.975 | 0.702 | 0.751 | 0.401 | 0.149 | 0.699 | 0.617
M fixed | 1.49 | 0.948 | 0.833 | 0.936 | 1.05 | 0.335 | 0.157 | 0.838 | 0.736
N fixed | 0.881 | 1.13 | 0.976 | 1.22 | 1.52 | 0.55 | 0.245 | 0.825 | 0.852
P fixed | 0.859 | 0.94 | 0.921 | 1.31 | 1.25 | 0.388 | 0.296 | 1.17 | 0.882
Q fixed | 0.974 | 0.674 | 0.939 | 0.921 | 0.893 | 0.544 | 0.443 | 0.902 | 0.744
R fixed | 1.01 | 1.58 | 1.01 | 1.03 | 1.64 | 5.91 | 11.7 | 2.89 | 3.67
V fixed | 1.16 | 1.01 | 0.753 | 0.737 | 0.471 | 0.352 | 0.152 | 0.693 | 0.675
W fixed | 0.7 | 0.737 | 0.892 | 1.1 | 0.692 | 0.332 | 0.225 | 0.59 | 0.626
Y fixed | 0.906 | 1.05 | 0.934 | 0.912 | 1.28 | 0.452 | 0.219 | 0.625 | 0.721
pThr fixed | 0.747 | 0.655 | 0.926 | 1.36 | 0.306 | 0.367 | 0.24 | 0.711 | 0.556
pTyr fixed | 0.806 | 1.04 | 1.43 | 1.54 | 0.752 | 0.319 | 0.232 | 0.574 | 0.722

MAP3K5, construct: aa659-951 (from UniProt Q99683)
relative phosphorylation
Conditions | at +1 | at +2 | at +3 | at +4 | at -1 | at -2 | at -3 | at -4 | at -5
A fixed | 0.385 | 0.72 | 0.897 | 0.901 | 0.825 | 1.66 | 1.44 | 1.09 | 1.01
D fixed | 0.255 | 0.881 | 0.707 | 0.815 | 0.699 | 0.504 | 0.689 | 0.908 | 0.899
E fixed | 0.344 | 0.473 | 0.652 | 0.812 | 0.685 | 0.471 | 0.738 | 0.906 | 0.815
F fixed | 2 | 1.32 | 1.22 | 0.964 | 1.08 | 0.77 | 0.826 | 1.04 | 1.17
G fixed | 0.324 | 0.521 | 0.951 | 0.926 | 1.58 | 1.12 | 0.979 | 1.08 | 1.28
H fixed | 1.1 | 1.06 | 1.04 | 1.12 | 1.06 | 0.985 | 1.24 | 1.02 | 1.19
I fixed | 2.04 | 0.648 | 1.01 | 0.717 | 0.507 | 1.12 | 0.905 | 0.897 | 0.75
K fixed | 0.375 | 1.08 | 1.04 | 1.88 | 1.13 | 0.61 | 1.02 | 0.913 | 1.13
L fixed | 1.33 | 0.806 | 1.03 | 0.943 | 0.993 | 1.12 | 1.01 | 0.827 | 0.747
M fixed | 0.894 | 0.812 | 1.06 | 0.877 | 1.06 | 1.17 | 0.894 | 1.04 | 0.88
N fixed | 0.382 | 0.615 | 0.793 | 0.743 | 1.04 | 1.36 | 0.989 | 0.807 | 0.792
P fixed | 0.352 | 0.543 | 1.03 | 1.02 | 1.07 | 1.22 | 1.36 | 1.22 | 1.41
Q fixed | 0.498 | 0.64 | 0.806 | 0.89 | 0.775 | 0.987 | 1 | 1.01 | 0.919
R fixed | 0.401 | 1.34 | 1.31 | 1.5 | 1.6 | 0.941 | 1.04 | 0.965 | 1.08
V fixed | 1.78 | 0.645 | 1.01 | 0.723 | 0.54 | 1.09 | 0.835 | 1.12 | 0.836
W fixed | 1.97 | 1.32 | 1.14 | 1.33 | 0.981 | 0.777 | 1.12 | 1.08 | 0.996
Y fixed | 2.56 | 3.57 | 1.29 | 0.846 | 1.37 | 1.09 | 0.904 | 1.07 | 1.09
pThr fixed | 0.556 | 0.528 | 0.673 | 0.597 | 0.672 | 0.847 | 0.914 | 0.985 | 1
pTyr fixed | 0.623 | 0.518 | 0.863 | 0.704 | 1.47 | 0.793 | 0.884 | 1.04 | 1.24

ULK1, construct: aa1-649 (from UniProt O75385)
relative phosphorylation
Conditions | at +1 | at +2 | at +3 | at +4 | at -1 | at -2 | at -3 | at -4 | at -5
A fixed | 0.56 | 0.645 | 0.867 | 0.899 | 1.17 | 1.22 | 0.964 | 1.16 | 1.15
D fixed | 0.265 | 0.292 | 0.853 | 0.841 | 1.13 | 1.22 | 0.659 | 1.21 | 1.61
E fixed | 0.424 | 0.307 | 0.834 | 0.944 | 1.19 | 1.19 | 0.572 | 0.905 | 1.02
F fixed | 1.74 | 1.12 | 0.842 | 0.803 | 0.477 | 1.08 | 1.11 | 0.716 | 0.797
G fixed | 0.359 | 0.409 | 1.04 | 1.11 | 0.79 | 0.916 | 0.884 | 1.3 | 1.18
H fixed | 0.854 | 1.87 | 1.13 | 1.19 | 0.857 | 1.14 | 0.682 | 1.01 | 1.15
I fixed | 1.53 | 1.26 | 0.869 | 0.738 | 0.543 | 0.753 | 0.674 | 0.678 | 0.572
K fixed | 0.615 | 0.849 | 1.48 | 1.32 | 1.83 | 0.608 | 0.404 | 0.832 | 1.09
L fixed | 1.13 | 0.94 | 0.901 | 0.836 | 0.723 | 0.799 | 1.56 | 0.821 | 0.733
M fixed | 2.01 | 1.23 | 0.906 | 0.848 | 1.19 | 1.09 | 4.03 | 1.07 | 0.786
N fixed | 0.563 | 0.816 | 0.891 | 1.01 | 1.09 | 0.947 | 1.1 | 1.2 | 1.42
P fixed | 0.234 | 0.211 | 0.927 | 1.32 | 0.397 | 0.439 | 0.698 | 1.27 | 0.811
Q fixed | 1.26 | 0.753 | 1.24 | 1.17 | 1.52 | 0.991 | 0.837 | 1.02 | 0.957
R fixed | 0.725 | 0.989 | 1.2 | 0.993 | 1.57 | 0.545 | 0.447 | 0.844 | 1.1
V fixed | 1.47 | 1.02 | 0.866 | 0.77 | 0.903 | 0.913 | 0.574 | 0.659 | 0.661
W fixed | 1.39 | 1.65 | 1.1 | 1.2 | 0.82 | 1.93 | 1.2 | 1.6 | 1.18
Y fixed | 1.87 | 2.64 | 1.04 | 1 | 0.794 | 1.22 | 0.599 | 0.716 | 0.786
pThr fixed | 0.885 | 0.413 | 0.718 | 1.13 | 0.568 | 0.67 | 0.704 | 0.846 | 0.762
pTyr fixed | 1.14 | 0.618 | 0.648 | 0.615 | 0.99 | 1.12 | 0.642 | 0.672 | 0.664

— the supplement of paper PMC9876800
